In assay [1] the target is T1, 人CD47 (表面过表达人CD47的293F细胞) (human, UniProt Q08722 19-323).
T1 construct: whole, on cells; also called 表面过表达人CD47的稳定细胞系293F
The experiment in a line: flow cytometry on 293F cells overexpressing human CD47.

Assay [2] deals with T2, 重组人CD47-his蛋白 (ACRO biosystems, cat#CD7-H5227, MW 15.6 kDa) (human, UniProt Q08722 19-139, biotin-labelled in the ELISAs (position not given); unlabelled in Biacore).
T2 construct: also called 人CD47蛋白; 人CD47-生物素; not shown: his tag
As to the kind of experiment: Biacore T200 SPR; antibody captured by goat anti-mouse IgG on a CM5 chip, CD47-his as analyte.

The values that follow come from patent publication CN115703833A (BOAOXIN BIOTECHNOLOGY NANJING CO LTD, dated 2023).

T2 sequence (Q08722 19-139 limits assumed): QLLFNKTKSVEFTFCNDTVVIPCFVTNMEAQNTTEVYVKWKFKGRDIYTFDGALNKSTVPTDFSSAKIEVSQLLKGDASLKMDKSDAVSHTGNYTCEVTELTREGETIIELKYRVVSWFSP
T1 sequence (Q08722 19-323): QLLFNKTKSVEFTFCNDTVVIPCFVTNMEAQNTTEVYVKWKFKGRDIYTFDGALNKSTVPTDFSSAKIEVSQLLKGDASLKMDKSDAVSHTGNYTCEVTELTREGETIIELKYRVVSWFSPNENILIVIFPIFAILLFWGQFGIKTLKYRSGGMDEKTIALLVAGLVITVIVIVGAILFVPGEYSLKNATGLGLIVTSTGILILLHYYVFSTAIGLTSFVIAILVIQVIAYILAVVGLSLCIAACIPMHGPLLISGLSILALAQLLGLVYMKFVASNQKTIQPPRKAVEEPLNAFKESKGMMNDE

B1: 本发明的单克隆抗体1D5 (小鼠抗CD47单克隆抗体) (antibody, V domains shown)
VH: EVQLQQSGAELVRSGASVKLSCTASGFNIKDYYMSWVRQRPEQGLEWIGWIDPKNGDTAYDPKFQGKATMTADTSSNTAYLQFSSLTSEDTADYYCNAGGRGGFAYWGQGTLVTVSA
VL: DVLMTQTPLSLPVSLGDQASISCRSNQSIVHSNGYTYLEWYLQKPGQSPKLLIYKVSNRFSGVPDRFSGSGSGTDFTLRISRVEAEDLGVYYCFQGSHVPRTFGGGTKLEIK
notes: Tested as a purified mouse monoclonal antibody from a hybridoma
B1: the binding result in assay [1] and in assay [2] was “binds” in each case.
